# Target: Tissue factor (TF) on human TNBC line MDA-MB-231 cells (human) (UniProt P13726)
# Test: cell-based or functional assay
# Chain of UniProt P13726 (P13726 33-295): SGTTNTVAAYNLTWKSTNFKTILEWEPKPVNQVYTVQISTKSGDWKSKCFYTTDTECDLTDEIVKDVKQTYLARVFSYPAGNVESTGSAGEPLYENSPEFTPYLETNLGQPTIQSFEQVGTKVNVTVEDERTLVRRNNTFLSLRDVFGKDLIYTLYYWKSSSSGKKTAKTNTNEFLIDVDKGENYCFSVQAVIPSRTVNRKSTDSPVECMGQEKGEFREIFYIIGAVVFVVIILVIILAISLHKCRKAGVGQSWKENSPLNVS
substance,measurement,value
"TF-targeting CAR1 monomer (hfVIIL-CD28-4-1BB-CD3zeta), expressed on NK92MI/fCD16 cells (from UniProt P10747 153-220; Q07011 214-255; P20963 52-164)","cytotoxicity to TNBC cells (CytoTox Homogenous Assay, E:T ratio of 10:1)",77%

# Source: US20200352996A1
